Source: article PMC7238552 (Cell, 2020)

B1: C6-RGD3 Fab (Fab, V domains shown)
VH: QIQLVQSGPELKKPGETVKISCKASGYTFTDYSMHWVKQAPGKGLKWVARINTETGEPTFADDFRGRFAVSLETSASTAYLQINNLKNEDTATYFCAIFYYGRDSWGQGTTLTVSS
VL: DIVMTQSPSSLAVSAGEKVTMSCKSSQSLLGRGDLGRLKKNALAWYQQKPGQSPRLLIYWASTRESGVPDRFTGSGSGTDFTLTISSVQAEDLAVYYCKQSYNLLSFGAGTKLELK
B2: C6-RGD3 antibody (mouse IgG2a) (antibody, V domains shown)
VH: B1 VH
VL: B1 VL

Columns and labels:
[1] = target: human integrin αvβ8 ectodomain (for structural studies) (Homo sapiens, UniProt P06756;P26012); assay: cryo-EM structure
[2] = target: recombinant integrin αvβ3 (R&D Systems) (Homo sapiens (assumed), UniProt P06756;P05106); assay: ELISA
[3] = target: recombinant integrin αvβ1 (R&D Systems) (Homo sapiens (assumed), UniProt P06756;P05556); assay: ELISA
[4] = target: recombinant integrin αvβ5 (R&D Systems) (Homo sapiens (assumed), UniProt P06756;P18084); assay: ELISA
recombinant integrin αvβ5 (R&D Systems), sequence (P06756 31-1048, chain 1 of 2): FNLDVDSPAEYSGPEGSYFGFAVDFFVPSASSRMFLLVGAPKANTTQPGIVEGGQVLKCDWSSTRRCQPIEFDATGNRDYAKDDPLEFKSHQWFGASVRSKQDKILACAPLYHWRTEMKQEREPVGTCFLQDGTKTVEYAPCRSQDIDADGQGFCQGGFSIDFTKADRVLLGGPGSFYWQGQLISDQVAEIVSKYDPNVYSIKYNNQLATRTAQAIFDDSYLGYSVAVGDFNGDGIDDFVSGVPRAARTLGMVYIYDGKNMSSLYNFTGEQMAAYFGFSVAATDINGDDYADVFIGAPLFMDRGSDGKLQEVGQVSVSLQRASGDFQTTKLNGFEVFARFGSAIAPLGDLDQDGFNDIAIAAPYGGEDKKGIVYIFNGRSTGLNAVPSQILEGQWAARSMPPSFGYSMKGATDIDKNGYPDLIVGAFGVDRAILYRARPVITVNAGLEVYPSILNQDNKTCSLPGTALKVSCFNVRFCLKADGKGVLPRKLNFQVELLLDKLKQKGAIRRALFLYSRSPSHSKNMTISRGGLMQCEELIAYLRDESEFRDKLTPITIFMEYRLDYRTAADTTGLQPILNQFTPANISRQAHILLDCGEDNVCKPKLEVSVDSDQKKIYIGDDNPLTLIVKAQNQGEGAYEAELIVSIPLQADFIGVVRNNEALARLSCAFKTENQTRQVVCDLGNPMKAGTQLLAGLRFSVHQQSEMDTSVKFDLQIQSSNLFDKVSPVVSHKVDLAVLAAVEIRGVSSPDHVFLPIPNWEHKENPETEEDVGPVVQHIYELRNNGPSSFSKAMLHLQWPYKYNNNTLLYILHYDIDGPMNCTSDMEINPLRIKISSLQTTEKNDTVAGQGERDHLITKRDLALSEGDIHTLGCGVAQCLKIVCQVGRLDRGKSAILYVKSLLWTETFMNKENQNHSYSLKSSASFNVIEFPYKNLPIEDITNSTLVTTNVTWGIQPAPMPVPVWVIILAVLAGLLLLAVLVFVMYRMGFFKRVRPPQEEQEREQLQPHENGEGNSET
recombinant integrin αvβ5 (R&D Systems), sequence (P18084 24-719, chain 2 of 2): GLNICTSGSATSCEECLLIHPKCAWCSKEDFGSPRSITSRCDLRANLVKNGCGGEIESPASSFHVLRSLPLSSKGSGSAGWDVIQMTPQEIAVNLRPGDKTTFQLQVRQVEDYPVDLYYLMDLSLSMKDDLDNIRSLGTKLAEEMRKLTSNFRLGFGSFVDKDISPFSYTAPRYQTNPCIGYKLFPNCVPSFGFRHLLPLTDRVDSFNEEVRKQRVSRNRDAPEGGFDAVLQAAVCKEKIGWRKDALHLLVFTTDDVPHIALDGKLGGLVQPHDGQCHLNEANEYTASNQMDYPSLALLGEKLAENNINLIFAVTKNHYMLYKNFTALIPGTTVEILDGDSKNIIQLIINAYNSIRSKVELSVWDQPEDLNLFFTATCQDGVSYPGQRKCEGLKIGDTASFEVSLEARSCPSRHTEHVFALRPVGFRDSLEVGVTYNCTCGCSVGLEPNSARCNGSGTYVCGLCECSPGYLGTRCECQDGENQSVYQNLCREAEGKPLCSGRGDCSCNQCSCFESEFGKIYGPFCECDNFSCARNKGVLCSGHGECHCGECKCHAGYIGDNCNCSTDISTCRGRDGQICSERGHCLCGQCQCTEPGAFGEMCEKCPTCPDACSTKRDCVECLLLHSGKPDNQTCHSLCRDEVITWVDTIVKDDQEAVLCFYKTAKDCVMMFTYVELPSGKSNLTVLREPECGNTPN

human integrin αvβ8 ectodomain (for structural studies), sequence (P06756 31-992, chain 1 of 2): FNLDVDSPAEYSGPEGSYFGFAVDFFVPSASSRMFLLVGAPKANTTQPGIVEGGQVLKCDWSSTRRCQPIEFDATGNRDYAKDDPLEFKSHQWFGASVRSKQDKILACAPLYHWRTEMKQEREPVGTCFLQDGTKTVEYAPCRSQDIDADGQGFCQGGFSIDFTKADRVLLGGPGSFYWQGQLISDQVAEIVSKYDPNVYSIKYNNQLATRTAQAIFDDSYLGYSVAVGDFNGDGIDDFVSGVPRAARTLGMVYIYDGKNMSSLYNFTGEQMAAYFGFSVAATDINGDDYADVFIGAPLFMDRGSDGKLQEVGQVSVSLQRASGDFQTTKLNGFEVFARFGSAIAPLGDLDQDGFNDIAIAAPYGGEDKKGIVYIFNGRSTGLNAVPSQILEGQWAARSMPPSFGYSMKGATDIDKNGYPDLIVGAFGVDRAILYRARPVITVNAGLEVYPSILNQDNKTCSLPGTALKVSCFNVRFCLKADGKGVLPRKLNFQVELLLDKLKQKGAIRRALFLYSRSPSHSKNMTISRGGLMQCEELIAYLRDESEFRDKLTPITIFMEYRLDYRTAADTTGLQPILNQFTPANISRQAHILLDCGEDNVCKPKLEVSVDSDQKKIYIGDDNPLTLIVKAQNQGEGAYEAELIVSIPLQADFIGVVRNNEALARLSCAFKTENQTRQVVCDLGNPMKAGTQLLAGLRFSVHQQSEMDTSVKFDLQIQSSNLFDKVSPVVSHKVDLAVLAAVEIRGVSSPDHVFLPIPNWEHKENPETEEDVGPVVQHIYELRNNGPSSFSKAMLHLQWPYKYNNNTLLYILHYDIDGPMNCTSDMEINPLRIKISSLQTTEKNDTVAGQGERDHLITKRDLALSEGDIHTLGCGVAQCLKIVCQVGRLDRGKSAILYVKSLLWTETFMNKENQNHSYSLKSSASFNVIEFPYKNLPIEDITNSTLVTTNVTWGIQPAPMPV
human integrin αvβ8 ectodomain (for structural studies), sequence (P26012 43-684, chain 2 of 2): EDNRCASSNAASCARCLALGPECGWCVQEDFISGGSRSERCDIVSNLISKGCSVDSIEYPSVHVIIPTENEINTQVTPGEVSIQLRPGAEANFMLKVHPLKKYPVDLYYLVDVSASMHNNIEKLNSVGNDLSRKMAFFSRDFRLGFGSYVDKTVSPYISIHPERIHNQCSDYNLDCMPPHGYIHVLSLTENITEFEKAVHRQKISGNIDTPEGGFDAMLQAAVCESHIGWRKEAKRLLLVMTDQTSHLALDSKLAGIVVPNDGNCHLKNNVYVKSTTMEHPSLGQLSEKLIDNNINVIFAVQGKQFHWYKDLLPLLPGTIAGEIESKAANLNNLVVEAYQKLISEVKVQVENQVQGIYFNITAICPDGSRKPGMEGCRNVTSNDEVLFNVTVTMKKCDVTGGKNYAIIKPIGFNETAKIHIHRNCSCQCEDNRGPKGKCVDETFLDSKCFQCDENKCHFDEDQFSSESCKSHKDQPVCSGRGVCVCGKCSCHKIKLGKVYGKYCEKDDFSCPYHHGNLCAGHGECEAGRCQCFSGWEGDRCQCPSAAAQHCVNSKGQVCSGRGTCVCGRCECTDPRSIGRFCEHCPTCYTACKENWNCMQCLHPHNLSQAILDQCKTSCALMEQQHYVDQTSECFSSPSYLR
recombinant integrin αvβ3 (R&D Systems), sequence (P06756 31-1048, chain 1 of 2): as the sequence (P06756 31-1048, chain 1 of 2) above
recombinant integrin αvβ3 (R&D Systems), sequence (P05106 27-718, chain 2 of 2): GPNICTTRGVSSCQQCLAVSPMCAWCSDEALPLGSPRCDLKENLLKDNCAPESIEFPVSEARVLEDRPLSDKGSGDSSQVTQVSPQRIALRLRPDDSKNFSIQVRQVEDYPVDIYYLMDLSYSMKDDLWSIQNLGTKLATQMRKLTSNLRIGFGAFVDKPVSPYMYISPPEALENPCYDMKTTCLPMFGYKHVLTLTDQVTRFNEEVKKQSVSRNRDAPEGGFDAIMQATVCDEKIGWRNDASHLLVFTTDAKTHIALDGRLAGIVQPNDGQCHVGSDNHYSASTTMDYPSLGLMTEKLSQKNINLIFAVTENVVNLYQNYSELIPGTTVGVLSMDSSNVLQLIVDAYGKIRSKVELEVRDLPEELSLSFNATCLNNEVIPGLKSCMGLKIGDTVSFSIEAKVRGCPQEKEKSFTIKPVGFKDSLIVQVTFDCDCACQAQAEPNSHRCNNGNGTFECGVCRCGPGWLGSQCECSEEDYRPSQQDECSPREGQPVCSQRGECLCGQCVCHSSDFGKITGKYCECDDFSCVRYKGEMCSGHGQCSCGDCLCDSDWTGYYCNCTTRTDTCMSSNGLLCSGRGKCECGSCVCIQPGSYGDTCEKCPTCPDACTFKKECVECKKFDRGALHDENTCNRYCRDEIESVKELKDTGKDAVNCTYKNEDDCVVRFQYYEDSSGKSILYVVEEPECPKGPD
recombinant integrin αvβ1 (R&D Systems), sequence (P06756 31-1048, chain 1 of 2): as the sequence (P06756 31-1048, chain 1 of 2) above
recombinant integrin αvβ1 (R&D Systems), sequence (P05556 21-728, chain 2 of 2): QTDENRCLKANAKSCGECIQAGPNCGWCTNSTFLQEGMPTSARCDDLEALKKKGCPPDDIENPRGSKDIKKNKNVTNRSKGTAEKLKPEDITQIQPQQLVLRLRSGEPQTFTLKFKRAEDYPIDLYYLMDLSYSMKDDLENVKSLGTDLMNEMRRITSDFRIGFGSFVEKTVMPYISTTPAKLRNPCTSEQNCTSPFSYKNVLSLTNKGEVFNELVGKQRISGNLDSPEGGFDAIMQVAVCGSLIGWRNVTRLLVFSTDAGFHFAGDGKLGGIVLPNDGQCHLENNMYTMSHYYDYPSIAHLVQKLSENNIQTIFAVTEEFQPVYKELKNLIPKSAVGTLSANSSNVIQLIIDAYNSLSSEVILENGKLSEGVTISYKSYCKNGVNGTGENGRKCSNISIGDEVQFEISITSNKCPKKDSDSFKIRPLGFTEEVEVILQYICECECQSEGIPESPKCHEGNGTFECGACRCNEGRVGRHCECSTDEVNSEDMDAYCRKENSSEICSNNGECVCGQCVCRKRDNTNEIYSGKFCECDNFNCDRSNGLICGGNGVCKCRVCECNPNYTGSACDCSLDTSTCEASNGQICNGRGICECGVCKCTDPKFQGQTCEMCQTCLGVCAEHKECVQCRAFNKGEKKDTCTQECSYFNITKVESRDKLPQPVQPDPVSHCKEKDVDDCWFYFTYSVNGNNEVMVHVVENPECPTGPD

Binder	binding result [1]	binding result [2]	binding result [3]	binding result [4]
B1	binds			
B2		no binding	no binding	no binding
